Data taken from patent US20030108554A1 (published 2003).

Columns and labels:
[1] = molecular target: T1, Goodpasture antigen binding protein (GPBP) (UniProt Q9Y5P4 1-624); assay: yeast two-hybrid, β-galactosidase colony lift
T1 construct: Protein kinase; Fusion parts are not written as pieces
T1 sequence (looked up): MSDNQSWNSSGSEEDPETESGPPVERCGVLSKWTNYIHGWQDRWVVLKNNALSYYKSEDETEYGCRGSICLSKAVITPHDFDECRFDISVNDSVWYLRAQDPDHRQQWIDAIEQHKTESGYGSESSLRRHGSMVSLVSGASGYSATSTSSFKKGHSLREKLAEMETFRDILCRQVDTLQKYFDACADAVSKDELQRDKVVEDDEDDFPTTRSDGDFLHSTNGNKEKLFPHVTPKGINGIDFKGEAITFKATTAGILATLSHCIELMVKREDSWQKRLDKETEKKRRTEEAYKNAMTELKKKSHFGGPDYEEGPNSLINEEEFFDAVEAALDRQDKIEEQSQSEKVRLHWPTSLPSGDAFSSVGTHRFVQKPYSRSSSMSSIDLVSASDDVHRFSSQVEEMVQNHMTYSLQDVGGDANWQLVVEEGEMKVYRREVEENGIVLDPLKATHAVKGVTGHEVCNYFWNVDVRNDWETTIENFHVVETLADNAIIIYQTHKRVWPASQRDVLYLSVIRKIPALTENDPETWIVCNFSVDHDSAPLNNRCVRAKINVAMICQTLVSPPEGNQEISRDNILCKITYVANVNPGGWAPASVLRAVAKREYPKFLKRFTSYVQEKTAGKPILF
Experimental: Deletion mutants were obtained using specific primers and PCR, followed by cloning of the resulting cDNAs in the pGBT9 and pGAD424 vectors. The assays were performed in SFY526 or HF7c Saccharomyces cerevisiae strains, with pGBT9 as GAL4 binding domain vector and pGAD424 as GAL4 activation domain vector, by the lift colony assay procedure. Briefly, the yeast cells were co-transformed with constructs of both binding domain and activation domain vectors, and the co-transformants were selected in medium deficient in both tryptophan and leucine. After five days of incubation at 30° C. the colonies were tested for the expression of β-galactosidase with X-Gal substrate (0.75 mg/ml). […] When the assays were performed with the HF7c strain, the interactions were assessed by the lift colony assay procedure and by growth in medium deficient in histidine, tryptophan and leucine. For yeast three-hybrid system, we used the pBRIDGE vector, which allows the conditional expression of a third protein apart from the usual GAL4 binding and activation domain-fusion proteins of the two-hybrid system. In this case, the expression of GPBP or I-20 or GIP90 was driven by Met25 promoter, active in absence of methionine. In these experiments, the transformed SFY526 cells were plated in medium deficient in tryptophan, leucine and methionine, and subjected to the colony lift assay after five days at 30° C. […]

pol κ = molecular target: T2, pol κ (UniProt Q9UBT6 1-870); assay: yeast two-hybrid
T2 construct: Tested in yeast two-hybrid (GAL4 domain fusion); also called primary protein product of the POLK
T2 sequence (looked up): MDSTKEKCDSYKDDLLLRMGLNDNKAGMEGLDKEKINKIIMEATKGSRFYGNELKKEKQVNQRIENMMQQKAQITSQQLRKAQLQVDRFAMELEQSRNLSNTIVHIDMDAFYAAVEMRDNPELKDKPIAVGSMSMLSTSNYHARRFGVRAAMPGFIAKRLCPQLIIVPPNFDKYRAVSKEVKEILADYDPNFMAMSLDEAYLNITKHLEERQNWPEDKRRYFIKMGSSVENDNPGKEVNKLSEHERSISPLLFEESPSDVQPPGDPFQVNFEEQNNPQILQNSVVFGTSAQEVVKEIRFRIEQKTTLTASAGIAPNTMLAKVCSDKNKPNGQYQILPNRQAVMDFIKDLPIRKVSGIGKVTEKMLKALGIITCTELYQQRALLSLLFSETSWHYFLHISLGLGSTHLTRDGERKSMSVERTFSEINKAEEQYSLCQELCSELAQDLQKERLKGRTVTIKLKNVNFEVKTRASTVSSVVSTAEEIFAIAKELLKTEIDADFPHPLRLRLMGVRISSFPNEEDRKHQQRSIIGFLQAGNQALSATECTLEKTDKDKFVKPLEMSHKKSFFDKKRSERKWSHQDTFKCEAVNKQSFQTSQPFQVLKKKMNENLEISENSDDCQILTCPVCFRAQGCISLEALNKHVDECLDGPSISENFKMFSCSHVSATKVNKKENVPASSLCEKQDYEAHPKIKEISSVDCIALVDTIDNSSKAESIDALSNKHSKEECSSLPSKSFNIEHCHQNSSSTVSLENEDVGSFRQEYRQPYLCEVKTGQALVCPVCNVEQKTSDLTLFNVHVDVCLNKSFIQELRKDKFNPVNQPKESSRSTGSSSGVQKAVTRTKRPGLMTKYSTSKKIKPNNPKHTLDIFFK

[2] = molecular target: the molecule itself; assay: yeast two-hybrid with I-20 deletion mutants
Experimental: The production of additional I-20 deletion mutants and their use in specific two hybrid studies permitted the identification of two specific regions of I-20 that are essential for GPBP interaction as well as the identification of other residues directly involved but not essential for the interaction (FIG. 4).
Deletion mutants were obtained using specific primers and PCR, followed by cloning of the resulting cDNAs in the pGBT9 and pGAD424 vectors. The assays were performed in SFY526 or HF7c Saccharomyces cerevisiae strains, with pGBT9 as GAL4 binding domain vector and pGAD424 as GAL4 activation domain vector, by the lift colony assay procedure. Briefly, the yeast cells were co-transformed with constructs of both binding domain and activation domain vectors, and the co-transformants were selected in medium deficient in both tryptophan and leucine. After five days of incubation at 30° C. the colonies were tested for the expression of β-galactosidase with X-Gal substrate (0.75 mg/ml). […] When the assays were performed with the HF7c strain, the interactions were assessed by the lift colony assay procedure and by growth in medium deficient in histidine, tryptophan and leucine.

[3] = molecular target: T1, Goodpasture antigen binding protein …; assay: yeast two-hybrid

Row | Binder | binding result [1] | binding result (pol κ) | binding result [2] | binding result [3]
1 | I-20 (other, Tested as GAL4 domain fusion in yeast two-hybrid and three-hybrid; fusion parts are not written as pieces; also called 265 residue polypeptide I-20) RDEVIGILKAEKMDLALLEAQYGFVTPKKVLEALQRDAFQAKSTPWQEDIYEKPMNELDKVVEKHKESYRRILGQLLVAEKSRRQTILELEEEKRKHKEYMEKSDEFICLLEQECERLKKLIDQEIKSQEEKEQEKEKRVTTLKEELTKLKSFALMVVDEQQRLTAQLTLQRQKIQELTTNAKETHTKLALAEARVQEEEQKATRLEKELQTQTTKFHQDQDTIMAKLTNEDSQNRQLQQKLAALSRQIDELEETNRSLRKAEEE | binds | no binding | binds | 
2 | GIP90 with deletion of the N terminal 240-residues (other, Deletion mutant in yeast two-hybrid (GAL4 domain fusion)) MVVDEQQRLTAQLTLQRQKIQELTTNAKETHTKLALAEARVQEEEQKATRLEKELQTQTTKFHQDQDTIMAKLTNEDSQNRQLQQKLAALSRQIDELEETNRSLRKAEEELQDIKEKISKGEYGNAGIMAEVEELRKRVLDMEGKDEELIKMEEQCRDLNKRLERETLQSKDFKLEVEKLSKRIMALEKLEDAFNKSKQECYSLKCNLEKERMTTKQLSQELESLKVRIKELEAIESRLEKTEFTLKEDLTKLKTLTVMFVDERKTMSEKLKKTEDKLQAASSQLQVEQNKVTTVTEKLIEETKRALKSKTDVEEKMYSVTKERDDLKNKLKAEEEKGNDLLSRVNMLKNRLQSLEAIEKDFLKNKLNQDSGKSTTALHQENNKIKELSQEVERLKLKLKDMKAIEDDLMKTEDEYETLERRYANERDKAQFLSKELEHVKMELAKYKLAEKTETSHEQWLFKRLQEEEAKSGHLSREVDALKEKIHEYMATEDLICHLQGDHSVLQKKTKSTRKQEQRFRKRD |  |  |  | no binding
